Measurements as given in publication PMC6883840 (Proceedings of the National Academy of Sciences of the …, 2019).

T1: ThrB (homoserine kinase) (Escherichia coli, UniProt P00547)
T1 sequence (P00547 1-310): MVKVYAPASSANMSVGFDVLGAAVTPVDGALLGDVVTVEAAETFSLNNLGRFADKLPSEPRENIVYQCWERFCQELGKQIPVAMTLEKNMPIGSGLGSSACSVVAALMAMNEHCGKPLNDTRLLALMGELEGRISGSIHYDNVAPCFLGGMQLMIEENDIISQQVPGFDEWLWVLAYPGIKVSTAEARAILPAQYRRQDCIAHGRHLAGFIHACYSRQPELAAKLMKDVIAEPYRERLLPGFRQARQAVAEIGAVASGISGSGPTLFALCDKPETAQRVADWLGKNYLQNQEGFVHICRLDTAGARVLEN

B1: SerC (Escherichia coli K-12) (protein)
chain: AQIFNFSSGPAMLPAEVLKQAQQELRDWNGLGTSVMEVSHRGKEFIQVAEEAEKDFRDLLNVPSNYKVLFCHGGGRGQFAAVPLNILGDKTTADYVDAGYWAASAIKEAKKYCTPNVFDAKVTVDGLRAVKPMREWQLSDNAAYMHYCPNETIDGIAIDETPDFGADVVVAADFSSTILSRPIDVSRYGVIYAGAQKNIGPAGLTIVIVREDLLGKANIACPSILDYSILNDNGSMFNTPPTFAWYLSGLVFKWLKANGGVAEMDKINQQKAELLYGVIDNSDFYRNDVAKANRSRMNVPFQLADSALDKLFLEESFAAGLHALKGHRVVGGMRASIYNAMPLEGVKALTDFMVEFERRHG

Key:
[1] = molecular target: T1, ThrB (homoserine kinase); assay: […]-NMR of ATP to ADP conversion; assay type: biochemical; settings: ATP hydrolysis without second substrate; 37 °C, 24 h
[2] = substrate: N[C@H](C(=O)O)[C@H](O)CO; assay: purified protein; settings: reverse direction: 4-hydroxythreonine to (3R)-3,4-dihydroxy-2-oxobutanoate

| Molecule | 31P-NMR of ATP to ADP conversion [1] | Km [2] [µM] | kcat [2] |
| --- | --- | --- | --- |
| Nc1ncnc2c1ncn2[C@@H]1O[C@H](COP(=O)(O)OP(=O)(O)OP(=O)(O)O)[C@@H](O)[C@H]1O [ATP] | hydrolysis of ATP in the active site of ThrB in the absence of a second substrate |  |  |
| B1 |  | 2600 ± 700 | 2.0 ± 0.1 × 10^-5 s^-1 |
